According to publication PMC2756588:

T1: Abp1, P15891
T1 sequence (P15891 535-592, looked up): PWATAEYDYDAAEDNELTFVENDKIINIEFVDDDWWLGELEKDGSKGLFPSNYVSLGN

T2: Bbc1, P47068
T2 sequence (P47068 1-78, looked up): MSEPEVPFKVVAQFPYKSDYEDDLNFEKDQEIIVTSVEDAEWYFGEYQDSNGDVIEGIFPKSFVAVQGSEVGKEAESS

T3: Boi1, P38041
T3 sequence (P38041 1-86, looked up): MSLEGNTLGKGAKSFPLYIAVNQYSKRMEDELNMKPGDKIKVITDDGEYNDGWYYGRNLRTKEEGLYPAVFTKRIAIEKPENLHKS

T4: Boi2, P39969
T4 sequence (P39969 32-116, looked up): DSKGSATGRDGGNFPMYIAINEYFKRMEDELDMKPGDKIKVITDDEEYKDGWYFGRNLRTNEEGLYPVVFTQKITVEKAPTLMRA

T5: Bud14, P27637
T5 sequence (P27637 247-328, looked up): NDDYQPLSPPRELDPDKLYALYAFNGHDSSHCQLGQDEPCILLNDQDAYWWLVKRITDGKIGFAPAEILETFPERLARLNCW

T6: Bzz1-1, P38822
T6 sequence (P38822 478-572, looked up): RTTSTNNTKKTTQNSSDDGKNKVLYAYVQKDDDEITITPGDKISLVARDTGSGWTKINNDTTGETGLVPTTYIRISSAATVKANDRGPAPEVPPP

T7: Bzz1-2, P38822
T7 sequence (P38822 568-633, looked up): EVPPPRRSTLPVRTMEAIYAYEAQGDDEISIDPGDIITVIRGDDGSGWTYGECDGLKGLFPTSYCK

T8: Cdc25, P04821
T8 sequence (P04821 50-136, looked up): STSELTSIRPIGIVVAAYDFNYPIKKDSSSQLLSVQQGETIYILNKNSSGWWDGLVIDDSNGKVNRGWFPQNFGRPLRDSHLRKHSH

T9: Cyk3, Q07533
T9 sequence (Q07533 1-83, looked up): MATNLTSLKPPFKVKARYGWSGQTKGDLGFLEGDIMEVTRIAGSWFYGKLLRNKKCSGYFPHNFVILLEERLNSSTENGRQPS

T10: Fus1, P11710
T10 sequence (P11710 432-512, looked up): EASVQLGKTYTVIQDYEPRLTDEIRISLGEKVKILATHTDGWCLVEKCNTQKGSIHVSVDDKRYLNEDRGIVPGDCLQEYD

T11: Hof1, Q05080
T11 sequence (Q05080 590-669, looked up): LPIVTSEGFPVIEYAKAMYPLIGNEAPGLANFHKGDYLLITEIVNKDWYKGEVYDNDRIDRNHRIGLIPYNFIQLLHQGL

T12: Hse1, P38753
T12 sequence (P38753 208-285, looked up): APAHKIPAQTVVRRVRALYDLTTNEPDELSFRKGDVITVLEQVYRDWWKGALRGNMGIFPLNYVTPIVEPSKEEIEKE

T13: Lsb1, P53281
T13 sequence (P53281 45-122, looked up): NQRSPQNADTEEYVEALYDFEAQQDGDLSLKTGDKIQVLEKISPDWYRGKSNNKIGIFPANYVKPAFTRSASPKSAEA

T14: Lsb3, P43603
T14 sequence (P43603 385-451, looked up): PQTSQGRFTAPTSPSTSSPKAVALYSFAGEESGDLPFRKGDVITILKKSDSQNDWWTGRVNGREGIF

T15: Lsb4, P32793
T15 sequence (P32793 402-468, looked up): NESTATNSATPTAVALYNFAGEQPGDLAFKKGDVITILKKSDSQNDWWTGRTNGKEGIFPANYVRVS

T16: Myo5, Q04439
T16 sequence (Q04439 1072-1160, looked up): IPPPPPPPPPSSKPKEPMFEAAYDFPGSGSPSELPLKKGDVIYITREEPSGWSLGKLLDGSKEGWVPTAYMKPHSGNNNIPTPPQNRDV

T17: Nbp2, Q12163
T17 sequence (Q12163 103-180, looked up): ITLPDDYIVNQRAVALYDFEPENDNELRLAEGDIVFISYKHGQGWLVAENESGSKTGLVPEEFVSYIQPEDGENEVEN

T18: Pex13, P80667
T18 sequence (P80667 295-386, looked up): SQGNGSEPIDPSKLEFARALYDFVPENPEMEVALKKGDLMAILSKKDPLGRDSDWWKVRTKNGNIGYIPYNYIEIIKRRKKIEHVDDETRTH

T19: Pin3, Q06449
T19 sequence (Q06449 53-122, looked up): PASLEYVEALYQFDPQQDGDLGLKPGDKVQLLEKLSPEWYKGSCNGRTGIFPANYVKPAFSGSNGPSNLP

T20: Sla1-2, P32790
T20 sequence (P32790 60-140, looked up): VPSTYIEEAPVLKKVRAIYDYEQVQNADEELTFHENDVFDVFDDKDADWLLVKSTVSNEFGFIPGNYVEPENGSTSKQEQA

T21: Sla1-3, P32790
T21 sequence (P32790 344-424, looked up): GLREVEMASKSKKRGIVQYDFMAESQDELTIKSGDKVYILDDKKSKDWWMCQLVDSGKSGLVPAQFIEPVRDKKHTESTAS


These binders were tested against T1, Abp1, P15891 (assay: SPOT array). Details: median of control spots 935.

| Binder | SPOT intensity |
| --- | --- |
| TTAPALPSLPPPPLL | 0 |
| TTNRGPPPLPPRANV | 48 |
| LKRITSPPLPPRADS | 40 |

Each binder was assayed against T2, Bbc1, P47068 (assay: SPOT array). Details: median of control spots 796.

| Binder | SPOT intensity |
| --- | --- |
| TTAPALPSLPPPPLL | 0 |
| TTNRGPPPLPPRANV | 33 |
| LKRITSPPLPPRADS | 33 |

The binders below were run against Bem1-1, P29366 (assay: SPOT array). Details: median of control spots 4282.
Bem1-1, P29366, sequence (P29366 55-141): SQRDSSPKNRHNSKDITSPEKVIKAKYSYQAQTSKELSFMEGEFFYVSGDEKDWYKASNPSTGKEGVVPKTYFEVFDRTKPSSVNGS

| Binder | SPOT intensity |
| --- | --- |
| TTAPALPSLPPPPLL | 0 |
| TTNRGPPPLPPRANV | 0 |
| LKRITSPPLPPRADS | 0 |

The binders below were run against Bem1-2, P29366 (assay: SPOT array). Details: median of control spots 4347.
Bem1-2, P29366, sequence (P29366 139-227): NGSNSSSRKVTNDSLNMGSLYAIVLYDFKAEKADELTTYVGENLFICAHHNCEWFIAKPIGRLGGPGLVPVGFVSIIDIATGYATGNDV

| Binder | SPOT intensity |
| --- | --- |
| TTAPALPSLPPPPLL | 0 |
| TTNRGPPPLPPRANV | 11 |
| LKRITSPPLPPRADS | 0 |

These binders were tested against T3, Boi1, P38041 (assay: SPOT array). Details: median of control spots 1162.

| Binder | SPOT intensity |
| --- | --- |
| TTAPALPSLPPPPLL | 0 |
| TTNRGPPPLPPRANV | 0 |
| LKRITSPPLPPRADS | 1 |

The binders below were run against T4, Boi2, P39969 (assay: SPOT array). Details: median of control spots 1161.

| Binder | SPOT intensity |
| --- | --- |
| TTAPALPSLPPPPLL | 0 |
| TTNRGPPPLPPRANV | 0 |
| LKRITSPPLPPRADS | 0 |

Each binder was assayed against T5, Bud14, P27637 (assay: SPOT array). Details: median of control spots 956.

| Binder | SPOT intensity |
| --- | --- |
| TTAPALPSLPPPPLL | 0 |
| TTNRGPPPLPPRANV | 1 |
| LKRITSPPLPPRADS | 3 |

What follows are binders tested against T6, Bzz1-1, P38822 (assay: SPOT array). Details: median of control spots 4446.

| Binder | SPOT intensity |
| --- | --- |
| TTAPALPSLPPPPLL | 0 |
| TTNRGPPPLPPRANV | 0 |
| LKRITSPPLPPRADS | 0 |

Each binder was assayed against T7, Bzz1-2, P38822 (assay: SPOT array). Details: median of control spots 4538.

| Binder | SPOT intensity |
| --- | --- |
| TTAPALPSLPPPPLL | 2 |
| TTNRGPPPLPPRANV | 8 |
| LKRITSPPLPPRADS | 6 |

Each binder was assayed against T8, Cdc25, P04821 (assay: SPOT array). Details: median of control spots 969.

| Binder | SPOT intensity |
| --- | --- |
| TTAPALPSLPPPPLL | 0 |
| TTNRGPPPLPPRANV | 0 |
| LKRITSPPLPPRADS | 0 |

The binders below were run against T9, Cyk3, Q07533 (assay: SPOT array). Details: median of control spots 1451.

| Binder | SPOT intensity |
| --- | --- |
| TTAPALPSLPPPPLL | 0 |
| TTNRGPPPLPPRANV | 0 |
| LKRITSPPLPPRADS | 0 |

Each binder was assayed against T10, Fus1, P11710 (assay: SPOT array). Details: median of control spots 1200.

| Binder | SPOT intensity |
| --- | --- |
| TTAPALPSLPPPPLL | 0 |
| TTNRGPPPLPPRANV | 0 |
| LKRITSPPLPPRADS | 0 |

What follows are binders tested against GST (assay: SPOT array). Details: median of control spots 978.

| Binder | SPOT intensity |
| --- | --- |
| TTAPALPSLPPPPLL | 0 |
| TTNRGPPPLPPRANV | 0 |
| LKRITSPPLPPRADS | 0 |

These binders were tested against T11, Hof1, Q05080 (assay: SPOT array). Details: median of control spots 4086.

| Binder | SPOT intensity |
| --- | --- |
| TTAPALPSLPPPPLL | 6110 |
| TTNRGPPPLPPRANV | 425 |
| LKRITSPPLPPRADS | 520 |

The binders below were run against T12, Hse1, P38753 (assay: SPOT array). Details: median of control spots 1727.

| Binder | SPOT intensity |
| --- | --- |
| TTAPALPSLPPPPLL | 0 |
| TTNRGPPPLPPRANV | 750 |
| LKRITSPPLPPRADS | 38 |

The binders below were run against T13, Lsb1, P53281 (assay: SPOT array). Details: median of control spots 388.

| Binder | SPOT intensity |
| --- | --- |
| TTAPALPSLPPPPLL | 0 |
| TTNRGPPPLPPRANV | 1110 |
| LKRITSPPLPPRADS | 892 |

What follows are binders tested against T14, Lsb3, P43603 (assay: SPOT array). Details: median of control spots 406.

| Binder | SPOT intensity |
| --- | --- |
| TTAPALPSLPPPPLL | 0 |
| TTNRGPPPLPPRANV | 892 |
| LKRITSPPLPPRADS | 566 |

The binders below were run against T15, Lsb4, P32793 (assay: SPOT array). Details: median of control spots 397.

| Binder | SPOT intensity |
| --- | --- |
| TTAPALPSLPPPPLL | 0 |
| TTNRGPPPLPPRANV | 743 |
| LKRITSPPLPPRADS | 700 |

What follows are binders tested against Myo3, P36006 (assay: SPOT array). Details: median of control spots 468.

| Binder | SPOT intensity |
| --- | --- |
| TTAPALPSLPPPPLL | 728 |
| TTNRGPPPLPPRANV | 129 |
| LKRITSPPLPPRADS | 75 |

The binders below were run against T16, Myo5, Q04439 (assay: SPOT array). Details: median of control spots 471.

| Binder | SPOT intensity |
| --- | --- |
| TTAPALPSLPPPPLL | 651 |
| TTNRGPPPLPPRANV | 206 |
| LKRITSPPLPPRADS | 4 |

These binders were tested against T17, Nbp2, Q12163 (assay: SPOT array). Details: median of control spots 357.

| Binder | SPOT intensity |
| --- | --- |
| TTAPALPSLPPPPLL | 0 |
| TTNRGPPPLPPRANV | 0 |
| LKRITSPPLPPRADS | 0 |

Each binder was assayed against T18, Pex13, P80667 (assay: SPOT array). Details: median of control spots 1341.

| Binder | SPOT intensity |
| --- | --- |
| TTAPALPSLPPPPLL | 4 |
| TTNRGPPPLPPRANV | 470 |
| LKRITSPPLPPRADS | 145 |

What follows are binders tested against T19, Pin3, Q06449 (assay: SPOT array). Details: median of control spots 2171.

| Binder | SPOT intensity |
| --- | --- |
| TTAPALPSLPPPPLL | 0 |
| TTNRGPPPLPPRANV | 48 |
| LKRITSPPLPPRADS | 11 |

The binders below were run against Rvs167, P39743 (assay: SPOT array). Details: median of control spots 2707.
Rvs167, P39743, sequence (P39743 419-482): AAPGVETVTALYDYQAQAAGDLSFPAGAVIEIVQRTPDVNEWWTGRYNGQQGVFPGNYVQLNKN

| Binder | SPOT intensity |
| --- | --- |
| TTAPALPSLPPPPLL | 0 |
| TTNRGPPPLPPRANV | 4620 |
| LKRITSPPLPPRADS | 4040 |

The binders below were run against Sho1, P40073 (assay: SPOT array). Details: median of control spots 1148.
Sho1, P40073, sequence (P40073 287-367): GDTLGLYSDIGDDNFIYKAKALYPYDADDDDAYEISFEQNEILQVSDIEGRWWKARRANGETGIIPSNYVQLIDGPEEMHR

| Binder | SPOT intensity |
| --- | --- |
| TTAPALPSLPPPPLL | 0 |
| TTNRGPPPLPPRANV | 58 |
| LKRITSPPLPPRADS | 65 |

The binders below were run against T20, Sla1-2, P32790 (assay: SPOT array). Details: median of control spots 712.

| Binder | SPOT intensity |
| --- | --- |
| TTAPALPSLPPPPLL | 0 |
| TTNRGPPPLPPRANV | 0 |
| LKRITSPPLPPRADS | 0 |

Each binder was assayed against T21, Sla1-3, P32790 (assay: SPOT array). Details: median of control spots 5475.

| Binder | SPOT intensity |
| --- | --- |
| TTAPALPSLPPPPLL | 0 |
| TTNRGPPPLPPRANV | 1 |
| LKRITSPPLPPRADS | 0 |
